# Laboratory results: article PMC8395731
# Molecular target: 6xHis-tagged mTOR fragment ∆N-FAT-M (human) (UniProt P42345)
# Assay: BLI; BLItz; His-tagged mTOR fragments (1 µM) immobilised on Ni-NTA biosensors, tagless RHEB as analyte (0.5 and 1 µM, or 0.05 and 0.1 µM for ∆ATP), no GTP; 10 mM HEPES pH 7.4, 100 mM NaCl, 0.02% Tween-20, 5 mg/mL BSA, 25 °C; global 1:1 fit
substance,measurement,value
6xHis-tag cleaved-RHEB (from UniProt Q15382 1-169) (natural protein),Kd,1260 nM
